Test: soluble on expression in E. coli; label from the status in PepcDB or PDB records

Sequence	soluble on expression in E. coli
MGSDKIHHHHHHMELYAASYILPIASPPIPGGAVAVHDGCIVETGTLAELRSRHSGPVHDFPGCAILPGLVNAHTHLELTHFPSWKIRKGIDYSPRTYVDWIIQVIKIRRALSPQELELSVREGLRICLEAGTTAIGEILTDRSLIPLYADSGLRGRLLFEAIGHDPVRNAQLVEELDAAIASFSGGSFLPGISPHAPHTVAEHLHQDVYRLAYERNVPRVIHLAESREESDFFFDSSGKIAEFLYPHVRWESYLPAPRRTTATAWLDGLGVLNGTISAVHCVHLTPSDAEILAKRGVGVVLCPRSNDKLAVGRAPVVLLKRLGVPLALGTDSLASNDSLSLWDEMRYLLDTFPGIFTPTEALSMTTIGSARQLALADRTGSLDKGKHADFLVMKLPGRNGSGEALHEALIHSGEILQVFLAGNLVVSREAFS	not soluble
MGSDKIHHHHHHMAQNIYDQPDFFAGYSQLGRSIEGLDGAAEWPALRAMLPEVGGLRIVDLGCGFGWFCRWAHEHGASYVLGLDLSEKMLARARAAGPDTGITYERADLDKLHLPQDSFDLAYSSLALHYVEDVARLFRTVHQALSPGGHFVFSTEHPIYMAPARPGWAIDAEGRRTWPIDRYLVEGPRKTDWLAKGVVKHHRTVGTTLNALIRSGFAIEHVEEFCPTDAQITARPELAEELDRPMFLLVSARR	not soluble
GSTERPVAGPYITFTDAVNETTIMLKWMYIPASNNNTPIHGFYIYYRPTDSDNDSDYKKDMVEGDKYWHSISHLQPETSYDIKMQCFNEGGESEFSNVMICETKARKSSGQ	soluble
MLRISRDLVIDEDDIEIGFVRASGPGGQNVNKVATSAQLRFDTRKLTLPEDATIRLARIAGQRMTKDGVIVIHAQRFRTQERNRQDAIDRLVEILSEAMIRPKPRRATRPTFGSKQRRLEGKKRRSDVKAGRGRSFDDLEHHHHHH	soluble
MGSDKIHHHHHHSFSLPGYLFGRCPDYSITYDKNDAQEQKDVYICDGNKSVVRIDSYKWNSSSSDWVYDGKTVMENDNQGRTLVAISYSAADVAGEKTEYTYTGNGYEKFSVTSSSFEGGAWKAEAKVDIEATFNKDKYPVSILMTGTAEGETFKMKMEWSYDKNVTKTSSSIDFGGSWMLMSESKTEIVDAGNPMISKNYQKMYFPAETSWEYSGKTHDYFNGTTSIAPVVEENELKLHIYGDVLEVQGTESGISIYAITGGKMAESKSNRIDISRLPAGIYLLNTARGSIKFIHK	not soluble
LGGAQETAETMAKESMVLLKNTDDTLPLSGDESVLLTGPGVDSNGNNTRALMQHGGWTLGWQGASAGGPFPRQNLLEAELRARVGSLTHVPTSYENTTWWAGEGDGGNQQSDENGNFDFTAEQRSRVESAGPESDVVVVVLGEGTHNEGFGDRDELVLDESQQALLDTVVESTDDSAPIIGVMLAGSPRGSPETFSQLDALLFAGQPGSDGGVAIAETLVGEYNPSGKLPFSWPENVGTTPVQYTRYDPTSTGGTDNTAIYEYGHGLSYTDF	not soluble
MTFKDLRDFIAQLEQRGALKRIQVPISPVLEMTEVCDRTLRAKGPALLFEKPTGFDMPVLGNLFGTPERVALGMGAEDVGALREIGKLLAQLKEPEPPKGLKDAWAKLPMYRKVLSMAPKVLKDAPCQEVVEEGEDVDLGRLPVQTCWPGDVGPLITWGLTVTRGPNKERQNLGIYRQQVIGRNKVIMRWLSHRGGALDYREWCQKHPGQPYPVAVALGADPATILGAVTPVPDTLSEYAFAGLLRGHRTELVKCRGSDLQVPASAEIVLEGVIHPGEMADEGPYGDHTGYYNEVDRFPVFTVERVTRRQKPIYHSTYTGRPPDEPAILGVALNEVFVPILQKQFPEIVDFYLPPEGCSYRMAVVTMKKQYPGHAKRVMLGVWSFLRQFMYTKFVIVTDDDIDARDWNDVIWAITTRMDPKRDTVMIDNTPIDYLDFASPVSGLGSKMGLDATHKWPGETSREWGRAIVKDEAVTRRIDALWSSLGIDAAALEHHHHHH	not soluble
MSWTVDIPKEALPDLPPLPDGLQQQFENVIARDAKQQPSWDKATAETVRKILESVPPIVVAPEVRELKQHLADVANGRAFLLQGGDCAETFESNTEPHIRANIKTLLQMAVVLTYGASTPVVKMARIAGQYAKPRSSDLDANGLPNYRGDIVNGVEATEEARRHDPARMIRAYANSSAASNLVRALTSSGTADLHRLTGWNREFVASSPAGARYEALAQEIERGLRFMSACGVNDHTLHSADIFCSHEALVVDYERAMLRLAEDEEGNVELYDLSAHQLWIGERTRGLDDFHVNFAAMIANPIGIKIGPTATPEEVVAYANKLDPNFVPGRLTIVARMGHDKVRDVLPGIVKAVEESGHKVIWQSDPMHGNTFTSSNGYKTRHFDKVIDEVQGFFEVHRALGTHPGGIHIEFTGENVTECLGGAEDITDVDLPGRYESACDPRLNTQQSLELSFLVAEMLRN	not soluble
MQQNKCPDCEVELEWTGQYHCGQCESDFKKVGFCPDCGAELEKLQACGAANYFCNTCNELKSKSRVRFEFQKISLEHHHHHH	soluble
MGSDKIHHHHHHMNLKQLRYFVTICEEGQITAAAKRLHIKQPLLSYEIKQLELELETSLFIRGPRGISLTDAGKVLKPYAEQITELSDVAKTKVKYLDKGISGSLSIGSISSSINKLPNQRLLKLKKYYPNIAINVIEGNTYKLLGYLEKGLIDLAILRTPFSSKGVIGYYFDKEPMVAVSAKNNQKDTVGLPDKYLKIDDLSNKPLIIYRRFKELIENTFRNLGFNPLIVVRCDDARTALDGAKVGFGTAIVPKSAILQVENEGEKDIEFREIKEKALETQLAIMWRRDDSFNPLTENFLKMFIGK	not soluble
MNRRRKLLIPLLFCGAMLTACDDKSAENAAAMTPEVGVVTLSPGSVNVLSELPGRTVPYEVAEIRPQVGGIIIKRNFIEGDKVNQGDSLYQIDPAPLQAELNSAKGSLAKALSTASNARITFNRQASLLKTNYVSRQDYDTARTQLNEAEANVTVAKAAVEQATINLQYANVTSPITGVSGKSSVTVGALVTANQADSLVTVQRLDPIYVDLTQSVQDFLRMKEEVASGQIKQVQGSTPVQLNLENGKRYSQTGTLKFSDPTVDETTGSVTLRAIFPNPNGDLLPGMYVTALVDEGSRQNVLLVPQEGVTHNAQGKATALILDKDDVVQLREIEASKAIGDQWVVTSGLQAGDRVIVSGLQRIRPGIKARAISSSQENASTESKQ	not soluble
MTYTLAILGCGVMGQALLSAIYNAPKAADETAAAFYPSKIITCNHDEPSAQQVTDLVETFDESPNGIKVESTYGHNVSAVEEASVVLLGTKPFLAEEVLNGVKSVIGGKLLISLAAGWTIDQLSQYTSTVCRVMTNTPAKYGYGCAVVSYSADVSKEQKPLVNELISQVGKYVELPEKNMDAATALVGSGPAFVLLMLESLMESGLKLGIPLQESKECAMKVLEGTVKMVEKSGAHPSVLKHQVCTPGGTTIAGLCVMEEKGVKSGIINGVEEAARVASQLGQKKK	soluble
MKTWLPTSTAGSLPKPSWLAQPETLWSPWKLSSEELLAGKRDALRLSLDDQLRAGIDIVSDGEQTRQHFVTTFIEHLSGVDFAKREIVKIRNRYEASVPTVVGAVERQKPVFVEDARYLRQLTSQPIKWALPGPMTMIDTLYDNHYKSREKLAWEFAKILNQEAKELEAAGVDIIQFDEPAFNVFFDEVNDWGIAALERATEGLKCETAVHICYGYGIKANTDWKKTLGSEWRQYEEAFPQLQKSSLDIISLECHNSRVPMDLLELIRGKKVMVGAIDVASHAIETPEEVAGTLRKALAFVDADKLYPSTNCGMAPLPRHVATGKLHALSAGAEIIRRELAAK	not soluble
MDPVFSRLLETANSVILGKEQPIRLCICCLLARGHLLIEDVPGVGKTTLARTLAALLGLKYQRIQFTSDLLPADVLGSSIYDATTHGFRFHPGPVFNPMVLADEINRSTPRAQSALLEAMEERQVTVEGETRPLPEPFFVIATQNPNTQIGTFPLPESQLDRFLMRIELGYPDPRAERELLMGEERYALLPQLPVCLPAERLLALQSRVRDVHASSALLDYVQALLHFSRESPLYQNGLSPRAGLALLHAAKAWALMDGRAAVLPEDIQAVLPPVAGHRLKLASGGGGMAETVAPLLRDVAIPLEHHHHHH	not soluble
NTIQQLMMILNSASDQPSENLISYFNNCTVNPKESILKRVKDIGYIFKEKFAKAVGAGCVAIGSQRYKLGVRLYYRVMESMLKSEEERLSIQNFSKLLNDNIFHMSLLACALEVVMATYSRSTSQNLDSGTDLSFPWILNVLNLKAFDFYKVIESFIKAEGNLTREMIKHLERCEHRIMESLAWLSDSPLFDLIKQSKTREGKSTSLSLFYKKVYRLAYLRLNTLCERLLSEHPELEHIIWTLFQHTLQNEYELMRDRHLDQIMMCSMYGICKVKNIDLKFKIIVTAYKDLPHAVQETFKRVLIKEEEYDSIIVFYNSVFMQRLKTNILQYASTRPPTLSPIPHI	soluble
MLSKTVFDASQERMEVIFSEFDNIIVSFSGGKDSAVMLHLMIDYIRKNNIQKKIYVYHLDYEGQYSATSDFVAEMLTSNLDIIEPLWCCLPIAAQSAVSMYTDHWIPWEKSKQDIWVREMPDYPSVINEDNAPFDFDFHTIWDYEFNKKLIHWLHTKNKAEKTIALIGIRQQESLNRYNAIHKKERMYKNYNWTTEISKNIYNAYPIHDWLVEDIWTANAKFDWPYNKIYDLFYQAGLTLNDMRVASPFNDSATESLKLYRVIEPALWSKLVGRVNGANFTAIYGGTSAMAWKEINLPPNHTWKSYLEFLLTTLPSYTRERYLKKFKTSINYWTEKGGALKVETVEELKNLNVQADFLGKPQNKRTYSNPMEIVRFKEYPDDLKIKEFASVPTYKRMCIAILKNDYTCKYMGFGQTKLELEKRKHALEKYNNIL	not soluble
HNPIDLMREIGALRQRGYNDRQIGEKIGVSTEYVNMIAGLLEKGEERLVSAVETGVLPLNLAIEISKTDAKGAQKALMDAYTQNKLRGRKLALVRRLIQQRELRGPQLHSNPLGRKPPKRALTSEGLVRAYQQEATRQKLLIKKAELTQSRLMFVREAFRKLRAD	not soluble
MSLFRLVFVMDIFNRNVVLAKGGIRENYRPVSDSSAVCRTSDPLEILEILRPKEVYIADLNVLQGKGPLDMNAEIIREVSFKADTMLDSGVSSSKDVDRALSIAGTAVIGTETGTLEVIKDSISRNPGRISVSIDIKHGKLLKQDPKIPEDPFEIVKILNRLPLKDLIFLDLDRVGTASGFDPEFLRKLAESSAHDVLLAGGVRGMKDLFALDSLGIKGALVATAIHSGEVSPEVMTLGLKKEGHHHHHH	soluble
MGSDKIHHHHHHMNIAIFGAGSTGCYLAGQLCISELQVSLICRPAIKQKIIANNGITLTDYNGFKQTIMPQALITDINQESSIYGKFDVVFVTLKCHQVSSIANQLMAITHDNSSIIFMQNGLGSFDSIKDSLDHYSLLQGITPFNVLQLPNAVFHKGTEGVFTLQANPHTIAIQSALVNHGFGCDIEADFTPMIYGKLLLNLNNALNAVTDLPIKQQLSHYKNRRILAKAMKEWLAVCEAADIQLHQYTKVKPSWLPTILLLPNVLFTVLAKQMLDIDPKARSSMWEDIQAKRKTEVDYINGAVVSIGKKYGIKTPVNQAIVEQIKQLEQRH	not soluble
MGSDKIHHHHHHMPADSVRPTWSLTDIPYATIEKEKIIGNTDWFYLLAGASFVETLSDLYTRNLVEYYQENVGATTWLRQEWEMEEVQHGHALRRYVLFVWPDFDWERAYQGFVTAYAPCCRTELLGPTHALEMASRCVVETGTASFYTMIQAASPEPVLRQIAAHIRADEVHHYKYFYRIFRQYQAAEKNSRWRIGRELWKRVAEAEQEDSYLAIKNAFEVKNPGEKFFIEDFAAFRKRIGGWVDRYYPFDMAIKMLLKPVALPPMLQRAALPLLSHGARRAILG	not soluble
